Data on 52 sequences can be found in the supplement of paper PMC11780869.

For the series, the system named is Bacillus subtilis. Kind of series: cleaved RNA product abundance (RNA/gDNA barcode ratio) relative to median wild-type variant (ratio to wild type); higher = more accumulation of the downstream cleavage product. The conditions noted are these: cleavage site: cggR-gapA (positions -7 to +36 mutated). How it is done: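 MPRA in B. subtilis. Mutagenized RNase Y cleavage-site regions (9% mutation rate) were inserted into a barcoded reporter mRNA (truncated aprE or tetM). Cells were grown in LB at 37°C to OD600 0.3. The cleaved RNA isoform was gel-purified and its barcodes counted; the RNA:gDNA barcode ratio was normalised to the median wild-type variant, and the median over barcodes is reported per variant. The printed sequence is the variable window only; the reporter flanks are not printed.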

[1] abbreviates: experiment (reporter, strain, medium): exp 4a: truncated aprE reporter, strain BJT201 with 2% xylose (RNase J1 expressed).
Setting [2] is: experiment (reporter, strain, medium): exp 2b: truncated aprE reporter, strain BJT200.
Setting [3] is: experiment (reporter, strain, medium): exp 6: tetM reporter, strain 168.

Consider “ACAGACGAAGGAGCCGCAAAGAAGCTATTAAGGGATGAATAATCCCTCAATATAAATAACTCTCACTTATTTAAA”, for which the “cleaved RNA product abundance” value under setting [1] stood at 0.674.
Take “ACAGACGAAGGAGCCGCAAAGAAGCTATTAAGGGATGAATAATCCCTCAATATAAATATCTCTCACTTATTTAAA”: the “cleaved RNA product abundance” value was 0.571 under setting [2], 0.615 under setting [1] and 0.588 under setting [3].
“ACAGACGAAGGAGCCGCAAAGAAGCTATTAAGGGATGAATAATCCCTCAATTTAAATATCTCTCACTTATTTAAA”: the “cleaved RNA product abundance” value under setting [1] turned out to be 0.0606.
On to “ACAGACGAAGGAGCCGCAAAGAAGCTATTAAGGGATGAATAATCCCTCAGTATAAATATCTCTCACTTATTTAAA”, for which, under setting [2], the “cleaved RNA product abundance” value turned out to be 0.135.
As to “ACAGACGAAGGAGCCGCAAAGAAGCTATTAAGGGATGAATAATCCCTGAATATAAATATCTCTCACTTATTTAAA”, under setting [1], the “cleaved RNA product abundance” value was determined as 0.343.
Still for that read-out and setting: next, “ACAGACGAAGGAGCCGCAAAGAAGCTATTAAGGGATGAATAATCCCTTAATATAAATATCTCTCACTTATTTAAA”: 0.827.
As for “ACAGACGAAGGAGCCGCAAAGAAGCTATTAAGGGATGAATAATTCCTCAATATAAATATCTCTCACTTATTTAAA”, the “cleaved RNA product abundance” value under setting [2] was 0.432.
For the sequence “ACAGACGAAGGAGCCGCAAAGAAGCTATTAAGGGATGAATACTCCCTCAATATAAATATCTCTCACTTATTTAAA”, the “cleaved RNA product abundance” value under setting [1] amounted to 0.458.
For the sequence “ACAGACGAAGGAGCCGCAAAGAAGCTATTAAGGGATGAATATTCCCTCAATATAAATATCTCTCACTTATTTAAA”, the “cleaved RNA product abundance” value runs as follows: under setting [2], 0.469; under setting [1], 0.56.
For the sequence “ACAGACGAAGGAGCCGCAAAGAAGCTATTAAGGGATGTATAATCCCTCAATATAAATATCTCTCACTTATTTAAA”, the “cleaved RNA product abundance” value under setting [1] stood at 0.576.
“ACAGACGAAGGAGCCGCAAAGAAGCTATTAAGGTATGAATAATCCCTCAATATAAATATCTCTCACTTATTTAAA”: the “cleaved RNA product abundance” value by setting is: under setting [2], 0.0903; under setting [1], 0.0903.
Regarding “ACAGACGAAGGAGCCGCAAAGAAGCTATTAAGTGATGAATAATCCCTCAATATAAATATCTCTCACTTATTTAAA”, the “cleaved RNA product abundance” value under setting [1] was 0.113.
Take “ACAGACGAAGGAGCCGCAAAGAAGCTATTAATGGATGAATAATCCCTCAATATAAATATCTCTCACTTATTTAAA”: the “cleaved RNA product abundance” value under setting [1] amounted to 0.123.
Still for that read-out and setting: the same measure for “ACAGACGAAGGAGCCGCAAAGAAGCTATTATGGGATGAATAATCCCTCAATATAAATATCTCTCACTTATTTAAA”: 0.346.
The same measure, in the same setting: next, “ACAGACGAAGGAGCCGCAAAGAAGGAATTAAGGGATGAATAATCCCTCAATATAAATATCTCTCACTTATTTAAA”: 0.353; “ACAGACGAAGGAGCCGCAAAGAAGGTATTAAAGGATGAATAATCCCTCAATATAAATATCTCTCACTTATTTAAA”: 0.189.
Turning to “ACAGACGAAGGAGCCGCAAAGAAGGTATTAAGAGATGAATAATCCCTCAATATAAATATCTCTCACTTATTTAAA”, the “cleaved RNA product abundance” value under setting [1] came out at 0.171.
For “ACAGACGAAGGAGCCGCAAAGAAGGTATTAAGGAATGAATAATCCCTCAATATAAATATCTCTCACTTATTTAAA”, the “cleaved RNA product abundance” value is, setting by setting: under setting [2], 0.145; under setting [1], 0.194.
With “ACAGACGAAGGAGCCGCAAAGAAGGTATTAAGGCATGAATAATCCCTCAATATAAATATCTCTCACTTATTTAAA”, the “cleaved RNA product abundance” value under setting [1] was 0.101.
Still for that read-out and setting: next, “ACAGACGAAGGAGCCGCAAAGAAGGTATTAAGGGATAAATAATCCCTCAATATAAATATCTCTCACTTATTTAAA”: 1.29.
In the case of “ACAGACGAAGGAGCCGCAAAGAAGGTATTAAGGGATGAAAAATCCCTCAATATAAATATCTCTCACTTATTTAAA”, the “cleaved RNA product abundance” value under setting [2] is 1.25.
With “ACAGACGAAGGAGCCGCAAAGAAGGTATTAAGGGATGAATAATCCATCAATATAAATATCTCTCACTTATTTAAA”, the “cleaved RNA product abundance” value under setting [1] was found to be 0.13.
“ACAGACGAAGGAGCCGCAAAGAAGGTATTAAGGGATGAATAATCCCACAATATAAATATCTCTCACTTATTTAAA”: the “cleaved RNA product abundance” value under setting [2] came out at 0.314.
With “ACAGACGAAGGAGCCGCAAAGAAGGTATTAAGGGATGAATAATCCCCCAATATAAATATCTCTCACTTATTTAAA”, the “cleaved RNA product abundance” value under setting [1] was 0.378.
Regarding “ACAGACGAAGGAGCCGCAAAGAAGGTATTAAGGGATGAATAATCCCTAAATATAAATATCTCTCACTTATTTAAA”, the “cleaved RNA product abundance” value was determined as 0.994 under setting [2] and 0.966 under setting [1].
For “ACAGACGAAGGAGCCGCAAAGAAGGTATTAAGGGATGAATAATCCCTCAATATAAATATCTCTCACTTATTTAAA”, the “cleaved RNA product abundance” value under setting [2] worked out at 1.51, the “cleaved RNA product abundance” value under setting [1] is 1.18 and the “cleaved RNA product abundance” value under setting [3] came to 0.983.
Take “ACAGACGAAGGAGCCGCAAAGAAGGTATTAAGGGATGAATAATCCCTCAATATAAATTTCTCTCACTTATTTAAA”: the “cleaved RNA product abundance” value under setting [1] worked out at 0.849.
Still for that read-out and setting: next, “ACAGACGAAGGAGCCGCAAAGAAGGTATTAAGGGATGAATAATCCCTCAATATAACTATCTCTCACTTATTTAAA”: 0.73; “ACAGACGAAGGAGCCGCAAAGAAGGTATTAAGGGATGAATAATCCCTGAATATAAATATCTCTCACTTATTTAAA”: 1.45.
Still for that read-out and setting: the same measure for “ACAGACGAAGGAGCCGCAAAGAAGGTATTAAGGGATGAATAATCCCTTAATATAAATATCTCTCACTTATTTAAA”: 0.326.
With “ACAGACGAAGGAGCCGCAAAGAAGGTATTAAGGGATGAATAATCGCTCAATATAAATATCTCTCACTTATTTAAA”, under setting [2], the “cleaved RNA product abundance” value amounted to 0.176.
In the case of “ACAGACGAAGGAGCCGCAAAGAAGGTATTAAGGTATGAATAATCCCTCAATATAAATATCTCTCACTTATTTAAA”, the “cleaved RNA product abundance” value under setting [1] worked out at 0.23.
For the sequence “ACAGACGAAGGAGCCGCAAAGAAGGTATTAAGTGATGAATAATCCCTCAATATAAATATCTCTCACTTATTTAAA”, the “cleaved RNA product abundance” value under setting [1] worked out at 0.104.
On the same count and under the same terms, next, “ACAGACGAAGGAGCCGCAAAGAAGGTCTTAAGGGATGAATAATCCCTCAATATAAATATCTCTCACTTATTTAAA”: 0.115; “ACAGACGAAGGAGCCGCAAAGAAGTAAATAAGGAATGAATAATCCCTCAATATAAATATCTCTCACTTATTTAAA”: 0.0667.
As for “ACAGACGAAGGAGCCGCAAAGAAGTAAATAAGGGATGAATAATCCCTCAATATAAATATCTCTCACTTATTTAAA”, the “cleaved RNA product abundance” value reads like this: under setting [2], 0.151; under setting [1], 0.258.
With “ACAGACGAAGGAGCCGCAAAGAAGTAAGTAAGGGATGAATAATCCCTCAATATAAATATCTCTCACTTATTTAAA”, the “cleaved RNA product abundance” value turned out to be 0.212 under setting [2] and 0.378 under setting [1].
As to “ACAGACGAAGGAGCCGCAAAGAAGTAATAAAGGGATGAATAATCCCTCAATATAAATATCTCTCACTTATTTAAA”, the “cleaved RNA product abundance” value under setting [1] stood at 0.205.
In the case of “ACAGACGAAGGAGCCGCAAAGAAGTAATTAAAGGATGAATAATCCCTCAATATAAATATCTCTCACTTATTTAAA”, the “cleaved RNA product abundance” value runs as follows: under setting [2], 0.101; under setting [1], 0.105.
In the case of “ACAGACGAAGGAGCCGCAAAGAAGTAATTAAAGGATTAATAATCCCTCAATATAAATATCTCTCACTTATTTAAA”, under setting [1], the “cleaved RNA product abundance” value stood at 0.183.
On the same count and under the same terms, next, “ACAGACGAAGGAGCCGCAAAGAAGTAATTAACGGATGAATAATCCCTCAATATAAATATCTCTCACTTATTTAAA”: 0.133.
The same measure, in the same setting: next, “ACAGACGAAGGAGCCGCAAAGAAGTAATTAACGGATGAATAATCCCTGAATATAAATATCTCTCACTTATTTAAA”: 0.16; “ACAGACGAAGGAGCCGCAAAGAAGTAATTAAGAGATAAATAATCCCTCAATATAAATATCTCTCACTTATTTAAA”: 0.123.
For “ACAGACGAAGGAGCCGCAAAGAAGTAATTAAGAGATGAATAATCCCTCAATATAAATATCTCTCACTTATTTAAA”, the “cleaved RNA product abundance” value reads like this: under setting [2], 0.0957; under setting [1], 0.141.
Take “ACAGACGAAGGAGCCGCAAAGAAGTAATTAAGCGATGAATAATCCCTCAATATAAATATCTCTCACTTATTTAAA”: the “cleaved RNA product abundance” value under setting [1] came to 0.157.
Turning to “ACAGACGAAGGAGCCGCAAAGAAGTAATTAAGGAATGAATAATCCCTCAATATAAATATCTCTCACTTATTTAAA”, the “cleaved RNA product abundance” value under setting [2] was 0.0931 and the “cleaved RNA product abundance” value under setting [1] was found to be 0.0879.
On to “ACAGACGAAGGAGCCGCAAAGAAGTAATTAAGGCATGAATAATCCCTCAATATAAATATCTCTCACTTATTTAAA”, for which the “cleaved RNA product abundance” value under setting [1] stood at 0.0969.
Consider “ACAGACGAAGGAGCCGCAAAGAAGTAATTAAGGGAAGAATAATCCCTCAATATAAATATCTCTCACTTATTTAAA”, for which the “cleaved RNA product abundance” value turned out to be 0.117 under setting [2] and 0.263 under setting [1].
For “ACAGACGAAGGAGCCGCAAAGAAGTAATTAAGGGACGAATAATCCCTCAATATAAATATCTCTCACTTATTTAAA”, in that order: 0.139 and 0.175.
With “ACAGACGAAGGAGCCGCAAAGAAGTAATTAAGGGATAAATAATCCCTCAATATAAATATCTCTCACTTATTTAAA”, the “cleaved RNA product abundance” value is, setting by setting: under setting [2], 0.256; under setting [1], 0.219.
As for “ACAGACGAAGGAGCCGCAAAGAAGTAATTAAGGGATCAATAATCCCTCAATATAAATATCTCTCACTTATTTAAA”, the “cleaved RNA product abundance” value amounted to 0.181 under setting [2] and 0.305 under setting [1].
For “ACAGACGAAGGAGCCGCAAAGAAGTAATTAAGGGATGAAAAATCCCTCAATATAAATATCTCTCACTTATTTAAA”, in that order: 0.163 and 0.272.
